According to patent US20220332829A1 (NANJING SANHOME PHARMACEUTICAL, published 2022):

What was measured:
[1] = target: T1, human 2Ig-B7-H3-His protein (human, UniProt Q5ZPR3 29-463); experiment: ELISA, plate coated with human 2Ig-B7-H3-His, detection with anti-human IgG HRP, OD450
T1 sequence: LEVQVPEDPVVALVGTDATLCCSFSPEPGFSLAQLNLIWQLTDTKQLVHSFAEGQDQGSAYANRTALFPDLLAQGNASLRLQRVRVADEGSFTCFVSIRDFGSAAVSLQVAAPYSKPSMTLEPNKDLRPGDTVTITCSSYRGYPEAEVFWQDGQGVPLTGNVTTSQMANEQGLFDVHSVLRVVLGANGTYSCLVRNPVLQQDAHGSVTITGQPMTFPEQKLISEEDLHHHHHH
Procedure: The binding activity of antibodies was analyzed by ELISA. 96-well ELISA plates were coated with human 4Ig-B7-H3-His protein or 2Ig-B7-H3-His protein (1 μg/well, prepared in Examples 1 and 2) and incubated overnight at 4° C. The plates were washed 3 times with 1×PBST and then blocked with 5% skim milk at 37° C. for 2 h. After washing 3 times with 1×PBST, the anti-B7-H3 antibody of the present disclosure was used as the primary antibody and added to the ELISA plates in 5-fold gradient dilution starting from 2 μg/mL with a total of 8 concentrations: 2,000 ng/mL, 400 ng/mL, 80 ng/mL, 16 ng/mL, 3.2 ng/mL, 0.64 ng/mL, 0.128 ng/mL and 0.0256 ng/mL respectively. The plates were incubated at 37° C. for 2 h with hBRCA84D as the positive control antibody. After washing 5 times with 1×PBST, Anti-Human IgG HRP (Jackson, 109-035-003, 1:5000) was used as the secondary antibody and incubated at 37° C. for 1 h. After washing 5 times with 1×PBST, color developing solution TMB was added to the plate, and microplate reader (Thermo, Multiskan FC) was used to read OD450 value after termination of the reaction. EC₅₀ was generated by GraphPad.

[2] = target: T2, Cynomolgus B7-H3-His (Sino Biological, Cat. No. 90806-C08H) (cynomolgus monkey); experiment: ELISA, plate coated with cynomolgus B7-H3-His, detection with anti-human IgG HRP, OD450
T2 construct: Bought reagent; also called cynomolgus monkey B7-H3; monkey B7-H3
Procedure: The binding activity of antibodies was analyzed by protein based ELISA. Cynomolgus B7-H3-His (0.5 μg/well, Sino Biological, Cat. No. 90806-C08H) was coated on 96-well ELISA plates. The anti-B7-H3 antibodies of the present disclosure was used as the primary antibody and added to the ELISA plates in 5-fold gradient dilution starting from 2 μg/mL with a total of 8 concentrations: 2,000 ng/mL, 400 ng/mL, 80 ng/mL, 16 ng/mL, 3.2 ng/mL, 0.64 ng/mL, 0.128 ng/mL, and 0.0256 ng/mL respectively. The plates were incubated at 37° C. for 2 h with AB06.12-4P as the positive control antibody. Anti-Human IgG HRP (Jackson, 109-035-003, 1:10,000) was used as the secondary antibody. Color developing solution TMB (3,3′,5,5′-tetramethylbenzidine) was added to the plate, and microplate reader (Thermo, Multiskan FC) was used to read OD450 value after termination of the reaction. EC₅₀ was generated by GraphPad.

[3] = target: T3, B7-H3 on surface of tumor cell (786-0, MDA-MB-231, Raji-B7-H3 cells) (human, UniProt Q5ZPR3 29-534); experiment: cell-based or functional assay
T3 sequence (looked up): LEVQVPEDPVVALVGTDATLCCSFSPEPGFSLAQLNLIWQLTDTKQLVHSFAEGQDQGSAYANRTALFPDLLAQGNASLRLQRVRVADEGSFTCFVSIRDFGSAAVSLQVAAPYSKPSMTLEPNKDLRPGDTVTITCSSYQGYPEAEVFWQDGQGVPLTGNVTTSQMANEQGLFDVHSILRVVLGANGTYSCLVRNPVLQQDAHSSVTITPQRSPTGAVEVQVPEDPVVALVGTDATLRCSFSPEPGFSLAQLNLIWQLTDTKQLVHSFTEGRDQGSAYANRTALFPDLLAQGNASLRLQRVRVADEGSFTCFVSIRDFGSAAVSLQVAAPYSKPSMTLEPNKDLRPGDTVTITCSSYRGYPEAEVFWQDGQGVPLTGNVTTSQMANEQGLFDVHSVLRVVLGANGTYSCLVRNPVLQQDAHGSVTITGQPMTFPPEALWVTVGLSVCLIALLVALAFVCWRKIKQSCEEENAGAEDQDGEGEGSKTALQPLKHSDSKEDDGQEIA

[4] = target: T3, B7-H3 on surface of tumor cell (786-0, …); experiment: FACS on MDA-MB-231 cells
Procedure: The binding activity of antibodies to B7-H3 on the surface of tumor cells was analyzed by FACS. Mean fluorescence intensity (MFI) and EC₅₀ detected by FACS indicate the binding activity of the antibody to cells. After 786-0 and MDA-MB-231 cells were digested, they were resuspended in 2% FBS-PBS solution and counted. After raji-B7-H3 cells were collected, they were resuspended in 2% FBS-PBS and counted. The above cells were plated in a cell plate with 1×10⁵ cells per well. The anti-B7-H3 antibody of the present disclosure was used as the primary antibody and added to cell plates in gradient dilution starting from 20 μg/mL with a total of 8 concentrations: 20,000 ng/mL, […], 2,000 ng/mL, 400 ng/mL, 80 ng/mL, 16 ng/mL, 3.2 ng/mL, and 0.64 ng/mL respectively. The plates were incubated at 4° C. for 1 h with hBRCA84D as the positive control antibody. PE-Anti-Human IgG (Biolegend, Cat. No. 409303, 1.25 μl/well) was used as the secondary antibody, washed, and detected for the fluorescence intensity generated by the binding of the antibody to the cell surface by a flow cytometer.

B1: hBRCA84D (antibody, human IgG1, kappa, V domains shown)
VH: EVQLVESGGGLVQPGGSLRLSCAASGFTFSSFGMHWVRQAPGKGLEWVAYISSDSSAIYYADTVKGRFTISRDNAKNSLYLQMNSLRDEDTAVYYCGRGRENIYYGSRLDYWGQGTTVTVSS
VL: DIQLTQSPSFLSASVGDRVTITCKASQNVDTNVAWYQQKPGKAPKALIYSASYRYSGVPSRFSGSGSGTDFTLTISSLQPEDFATYYCQQYNNYPFTFGQGTKLEIKR
notes: Humanized antibody from WO2011/109400; also called positive control antibody hBRCA84D; control antibody hBRCA84D
EC50 (read off the curve) [1]: ~10 ng/mL
EC50 (read off the curve) [2]: ~6 ng/mL
EC50 Ratio (ADCC, LDH method; EC50 of hBRCA84D divided by EC50 of the antibody; 786-0 target cells, human PBMC effectors) [3]: 1
EC50 [4]: 384 ng/mL
Mean fluorescence intensity (MFI) [4]: 35800
